Ends that are not written are not given here. * marks the point of attachment. Cbz = O=C(OCc1ccccc1)*
T1: affinity purified membrane derived caspase-3 from 697 cell heavy membranes (human, UniProt P42574 14-175; P42574 176-277, limits assumed)
T1 chain 1: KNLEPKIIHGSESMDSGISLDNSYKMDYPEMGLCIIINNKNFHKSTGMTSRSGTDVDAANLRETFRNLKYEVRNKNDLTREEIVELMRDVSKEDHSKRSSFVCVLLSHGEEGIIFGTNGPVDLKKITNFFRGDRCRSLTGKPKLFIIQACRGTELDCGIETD
T1 chain 2: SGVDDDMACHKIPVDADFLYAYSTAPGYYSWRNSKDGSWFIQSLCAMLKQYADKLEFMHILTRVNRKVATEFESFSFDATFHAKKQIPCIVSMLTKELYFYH

T2: r-caspase-3 (His)6 (human, UniProt P42574 29-175; P42574 176-277)
T2 sequence 1: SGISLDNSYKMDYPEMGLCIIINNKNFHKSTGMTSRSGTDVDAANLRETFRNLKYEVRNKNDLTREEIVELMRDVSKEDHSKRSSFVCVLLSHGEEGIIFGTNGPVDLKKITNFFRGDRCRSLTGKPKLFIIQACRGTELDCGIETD
T2 sequence 2: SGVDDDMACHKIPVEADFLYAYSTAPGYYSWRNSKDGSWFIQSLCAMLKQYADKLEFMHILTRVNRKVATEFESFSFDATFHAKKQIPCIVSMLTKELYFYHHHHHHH

T3: 697-neo HM (spontaneous activity) caspase (human, UniProt P42574 14-175, limits assumed)
T3 sequence 1: T1 chain 1
T3 sequence 2: T1 chain 2

T4: 697-neo HM (caspase-1 treated) caspase (human, UniProt P42574 14-175; P42574 176-277, limits assumed)
T4 chain 1: T1 chain 1
T4 chain 2: T1 chain 2

T5: 697 Bcl-2 HM (caspase-1 treated) caspase (human, UniProt P42574 14-175; P42574 176-277, limits assumed)
T5 chain 1: T1 chain 1
T5 chain 2: T1 chain 2


Experiments:
Assay in all cases: cell-based or functional assay
[1] = biological target: T1, affinity purified membrane derived …
r-caspase-3 (His)6 [2] = biological target: T2, r-caspase-3 (His)6
[3] = biological target: MN9D HM (caspase-1 treated) caspase (mouse)
[4] = biological target: cortical cell HM (caspase-1 treated) caspase (mouse)
r-caspase-3 (His)6 [5] = biological target: T2, r-caspase-3 (His)6; remark: listed apart in the source
[6] = biological target: T3, 697-neo HM (spontaneous activity) …
[7] = biological target: T4, 697-neo HM (caspase-1 treated) caspase
[8] = biological target: T5, 697 Bcl-2 HM (caspase-1 treated) caspase

Binder	IC50, inhibition of DEVD-AMC cleavage activity [1] [nM]	IC50, inhibition of DEVD-AMC cleavage activity (r-caspase-3 (His)6 [2]) [nM]	IC50, inhibition of DEVD-amc cleavage [3] [nM]	IC50, inhibition of DEVD-amc cleavage [4] [nM]	IC50, inhibition of DEVD-amc cleavage (r-caspase-3 (His)6 [5]) [nM]	IC50, inhibition of DEVD-amc cleavage [6] [nM]	IC50, inhibition of DEVD-amc cleavage [7] [nM]	IC50, inhibition of DEVD-amc cleavage [8] [nM]
DEVD-aldehyde [DEVD-ald]	1	1	0.72	1	1			
VEID-aldehyde [VEIDald]	34	32						
DFLD-aldehyde [DFLD-ald]	4.7	1.1	2.5	2.3	1.5	3.4	4.5	3.6

Further lines, results first:

IC50, inhibition of DEVD-AMC cleavage activity [1] [nM]	IC50, inhibition of DEVD-AMC cleavage activity (r-caspase-3 (His)6 [2]) [nM]	IC50, inhibition of DEVD-amc cleavage [3] [nM]	IC50, inhibition of DEVD-amc cleavage [4] [nM]	IC50, inhibition of DEVD-amc cleavage (r-caspase-3 (His)6 [5]) [nM]	IC50, inhibition of DEVD-amc cleavage [6] [nM]	IC50, inhibition of DEVD-amc cleavage [7] [nM]	IC50, inhibition of DEVD-amc cleavage [8] [nM]	Binder
		> 10000	> 10000	> 10000				Ac-YVAD-aldehyde [YVAD-ald]
32	24							Cbz-Glu-Val-Asp-aldehyde (SMILES CC(C)[C@H](NC(=O)[C@H](CCC(=O)O)NC(=O)OCc1ccccc1)C(=O)N[C@H](C=O)CC(=O)O) [ZEVDald]
